Data taken from publication PMC12307654, “Time-dependent catalytic activity in aging condensates” (Nature Communications, 2025).

Substrate: C=C(O[C@H]1C=C[C@H](C(=O)CCC(=O)O)[C@@H](C(=O)O)[C@@H]1O)C(=O)O
Assay: purified protein
Assay type: biochemical, Escherichia coli
Conditions: free enzyme without scaffold, 20 mM Tris, 150 mM NaCl, 0.5 mM AEBSF, 0.1 mM DTT, 0.1% Triton X-100, 10% glycerol, pH 7.4, room temperature

B1: MenH-RIDD (Escherichia coli K-12) (protein)
chain: MILHAQAKHGKPGLPWLVFLHGFSGDCHEWQEVGEAFADYSRLYVDLPGHGGSAAISVDGFDDVTDLLRKTLVSYNILDFWLVGYSLGGRVAMMAACQGLAGLCGVIVEGGHPGLQNAEQRAERQRSDRQWVQRFLTEPLTAVFADWYQQPVFASLNDDQRRELVALRSNNNGATLAAMLEATSLAVQPDLRANLSARTFAFYYLCGERDSKFRALAAELAADCHVIPRAGHNAHRENPAGVIASLAQILRF
notes: full-length MenH fused to the RIDD docking peptide tag; gene from laboratory stock; free enzyme without FIB1-GFP-RIAD scaffold
B1 showed a Km of 12.75 ± 1.68 µM and a kcat of 1.536 ± 0.0972 s⁻¹.
